Laboratory results taken from PMC3581551, “The N-Terminal β-Sheet of Peroxiredoxin 4 in the Large Yellow Croaker Pseudosciaena crocea Is Involved in Its Biological Functions” (PLoS ONE, 2013).

Target: the molecule itself
Experiment: crystal structure; reduced form, 1.90 Å, space group C2; five subunits in the asymmetric unit (two dimers and a monomer), decamer (pentamer of dimers) by crystal symmetry; crystals at 16°C, 10% PEG MME 5,000, 0.1 M HEPES-NaOH pH 8.0, with 14 mM β-mercaptoethanol and 10 mM DTT

B1: Pseudosciaena crocea peroxiredoxin 4 (Prx4), mature protein without the 29-residue signal peptide (enzyme)
chain: EEAAHVKNSQCHNYAGGHVYPGEAFRVPVSDHSLHLSKAKISKPAPQWEGTAVINGEFKELKLSDYRGKYLVFFFYPLDFTFVCPTEIIAFSDRVHEFRAINTEVVACSVDSQFTHLAWIITPRKQGGLGPMKIPLLSDLTHQISKDYGVYLEDQGHTLRGLFIIDEKGVLRQITMNDLPVGRSVDETLRLVQAFQYTDKHGEVCPAGWKPGSDTIIPDPSGKLKYFDKMK
With B1 the “stoichiometry N” value was 10.
